Source: publication PMC4277889
Read-outs that look alike come from different tables or passages of the source.

T1: EpCAM (epithelial cell adhesion molecule) (UniProt P16422 24-265)
T1 sequence: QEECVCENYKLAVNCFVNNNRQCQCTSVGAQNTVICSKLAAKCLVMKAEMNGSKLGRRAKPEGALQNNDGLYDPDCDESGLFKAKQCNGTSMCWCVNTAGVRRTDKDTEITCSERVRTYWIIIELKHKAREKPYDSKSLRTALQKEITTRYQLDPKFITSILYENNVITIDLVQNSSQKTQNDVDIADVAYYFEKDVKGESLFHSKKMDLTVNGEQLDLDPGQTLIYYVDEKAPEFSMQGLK


Experiments:
[1] = target: T1, EpCAM (epithelial cell adhesion …); test: ACP fluorescence switching
[2] = target: T1, EpCAM (epithelial cell adhesion …); test: ACP fluorescence switching; remark: listed apart in the source

Row | Binder | binding result [1] | binding result [2]
1 | JYK-01 ACP (polydiacetylene conjugate) (ssDNA, 5' amine coupled to diacetylene monomer (TCDA) in polydiacetylene particle) DNA: TGAAGGTTCGTTGTTTCGGTGGGTGTAGACTCTTTAGAAGAGATACAGATTTTGGGAATG | binds | –
2 | random sequence ACP (ssDNA, 5' conjugated to polydiacetylene as JYK-01) DNA: TAAGTATATCGTGCCTGCGACTATGTTATGATGAGGCAGTCTTTAACCTGACTCGTAATA | – | no binding
